# Where two headings read alike, the source gives them in different places.
# Columns and labels:
# [1] = molecular target: 11S, large fragment of a split luciferase
# [2] = molecular target: 11S, large fragment of a split luciferase; remark: listed apart in the source
# [3] = molecular target: 11S, large fragment of a split luciferase; remark: listed apart in the source
# [4] = molecular target: 11S, large fragment of a split luciferase; remark: listed apart in the source
# [5] = molecular target: 11S, large fragment of a split luciferase; remark: listed apart in the source
# [6] = molecular target: 11S, large fragment of a split luciferase; remark: listed apart in the source
# [7] = molecular target: 11S, large fragment of a split luciferase; remark: listed apart in the source
# [8] = molecular target: 11S, large fragment of a split luciferase; remark: listed apart in the source
substance,measurement,setting,value
PINK1 DDL I111S (from UniProt Q9BXM7 78-581),Kd,[1],144 nM
PINK1(3EA) DDL (from UniProt Q9BXM7 78-581),Kd,[2],715 nM
PINK1(3EA) DLD (from UniProt Q9BXM7 78-581),Kd,[3],93.7 nM
PINK1(3EA) LDD (from UniProt Q9BXM7 78-581),Kd,[4],284 nM
PINK1(ALALAL) DDL (from UniProt Q9BXM7 78-581),Kd,[5],133 nM
PINK1Δ(1-50) DDL (from UniProt Q9BXM7 51-581),Kd,[6],238 nM
PINK1Δ(1-91) DDL (from UniProt Q9BXM7 92-581),Kd,[7],187 nM
PINK1Δ(1-150) DDL (from UniProt Q9BXM7 151-581),Kd,[8],447 nM
